From article PMC6435160, “Initiation-specific alleles of the Cdc45 helicase-activating protein” (PLoS ONE, 2019)
Residue numbers refer to the chain shown, from its start. One block for each binder: values may come before it.

Assays:
[1] = target: T1, Mcm2-7 replicative DNA helicase, loaded on origin DNA and phosphorylated by DDK (S. cerevisiae, UniProt P29469 1-868; P24279 1-971; P30665 1-933; P29496 1-775; P53091 1-1017; P38132 …); experiment: pull-down; reconstituted DNA replication assay: Mcm2-7 loaded on bead-attached origin DNA (pARS1-Nco) and treated with DDK; S-CDK, Sld2, Dpb11, Pol α-primase, Pol ε, RPA, GINS, Mcm10, Sld3/7 and 130 nM Cdc45 added; 1 h at 25°C; beads washed with buffer H + 0.3 M K-Glut, 0.02% NP-40; proteins released with DNase and detected by immunoblot; amounts relative to wild type; conditions: both partners purified
T1 construct: Mcm2 subunit of Mcm2-7, S. cerevisiae; Mcm3 subunit of Mcm2-7, S. cerevisiae; Mcm4 subunit of Mcm2-7, S. cerevisiae; Mcm5 subunit of Mcm2-7, S. cerevisiae; Mcm6 subunit of Mcm2-7, S. cerevisiae; Mcm7 subunit of Mcm2-7, S. cerevisiae; In the assays the complex was loaded on origin DNA and treated with DDK; also called Mcm2-7 complex; loaded Mcm2-7; source: Mcm2-7/Cdt1 purified as previously …

[2] = target: T1, Mcm2-7 replicative DNA helicase, loaded …; experiment: pull-down; CMG formation assay: Mcm2-7 loaded on bead-attached origin DNA (pUC19-ARS1) and treated with DDK; S-CDK, Sld2, Dpb11, Pol ε, GINS, Mcm10, Sld3/7 and 50 nM Cdc45 added, no Pol α-primase; 30 min at 25°C; beads washed with buffer H + 0.3 M KCl, 0.02% NP-40 (salt-stable complexes); proteins released with DNase and detected by immunoblot; amounts relative to wild type; conditions: both partners purified

binding result [1]: binds
B1: GINS complex (Sld5, Psf1, Psf2, Psf3) (complex, S. cerevisiae)
chain 1: MDINIDDILAELDKETTAVDSTKITQGSSSTTHRDANTIVGSSLDLNDKTQIYVSPQQDFSDLMKSWKNERCSPELLPYPHQLMKRLLNRISMQSQLIENISMGFLDMQNASNANPPMPNESKLPLLCMETELERLKFVIRSYIRCRLSKIDKFSLYLRQLNEDENSLISLTDLLSKDEIKYHDTHSLIWLKLVNDSILKYMPEELQAINDTEGSVNMIDEPDWNKFVFIHVNGPPDGKWNEDPLLQENEFGKPCYTVTIPDLKEEVELTIGSIYVMRYEVIRDLLRDDKVALI
chain 2: MYGDLGNKLVLEAKRTKQLYARSNQDVNLPMYHEDIIRNILKEVSNLRKNTEYLKEQQQLGMLDDKVAKCQYFVTLLCMERNKRCLLAYQRLRTDILDSMAWNNNGLDLMSSITFSQQDTNNLSHQEQEYLKEYCDLITDLKSGDLVDIDLSGSLVPPSDVFIDVRVLKDAGEIQTEYGVFNLIKDSQFFVRQSDVERLIQQGYLQKI
chain 3: MSLPAHLQQTFSPEEIQFIVENEPIKIFPRITTRQKIRGDDRGTGNHTRWQLITTDDKALNNMVAMRSTEVVLWIALLLKQQSKCSIVAPQWLTTKELDRKIQYEKTHPDRFSELPWNWLVLARILFNKAKDDFHDPIHELRGKIQDLREIRQIKVLKGLKYLNESHLQLDNLSLLEINELRPFITEIMDKLREIHTASLTAGTENDEEEFNI
chain 4: MGYYDIDDVLADGTEFPCKFQYDIPGLGYLENNPGRPITKNTKLSLPLWLARILAIVGGDEALVDEEPVPFVELLPPDMFSTKVMNAIKTDPVALDLHSINSHFFSLAIKWIMLFSEKELANVVSELLLQRAQELNHHASSLSIDLNADSTGKNSANTNIATSTFLLKLEEMEKEIYKKSHESYKDTKRWMFKK
notes: Sld5 subunit of GINS, S. cerevisiae; Psf1 subunit of GINS, S. cerevisiae; Psf2 subunit of GINS, S. cerevisiae; expressed as Psf2-3C-6xHis-Flag, tag removed with HRV 3C protease; Psf3 subunit of GINS, S. cerevisiae; not shown: 6xHis, C-terminal, cleaved; Flag, C-terminal, cleaved; copies: + + +

stable CMG complexes, percent of wild-type Cdc45 [2]: 67 % of wild-type Cdc45
B2: Cdc45-124 (DAH->AAA) (natural protein, S. cerevisiae, UniProt Q08032 1-650, looked up)
chain: MYYGISQFSEAYNKILRNSSSHSSCQLVIFVSCLNIDALCATKMLSLLFKKQLVQSQIVPIFGYSELRRHYSQLDDNINSLLLVGFGGVIDLEAFLEIDPQEYVIDTDEKSGEQSFRRDIYVLAAARPWNLDNIFGSQIIQCFDDGTVDDTLGEQKEAYYKLLELDEESGDDELSGDENDNNGGDDEATDADEVTDEDEEDEDETISNKRGNSSIGPNDLSKRKQRKKQIHEYEGVLEEYYSQGTTVVNSISAQIYSLLSAIGETNLSNLWLNILGTTSLDIAYAQVYNRLYPLLQDEVKRLTPSSRNSVKTPDTLTLNIQPDYYLFLLRHSSLYDSFYYSNYVNAKLSLWNENGKKRLHKMFARMGIPLSTAQETWLYMDHSIKRELGIIFDKNLDRYGLQDIIRDGFVRTLGYRGSISASEFVEALTALLEVGNSTDKDSVKINNDNNDDTDGEEEEDNSAQKLTNLRKRWVSNFWLSWDALDDRKVELLNRGIQLAQDLQRAIFNTGVAILEKKLIKHLRIYRLCVLQDGPDLDLYRNPLTLLRLGNWLIECCAESEDKQLLPMVLASIDENTDTYLVAGLTPRYPRGLDTIHTKKPILNNFSMAFQQITAETDAKVRIDNFESSIIEIRREDLSPFLEKLTLSGLL
notes: Cdc45, Saccharomyces cerevisiae, clustered alanine mutant; mutants are numbered by the position of the first mutated amino acid; also called Cdc45-ts

percent of wild-type Cdc45 association [1]: 20 % of wild-type Cdc45 association
stable CMG complexes, percent of wild-type Cdc45 [2]: 55 % of wild-type Cdc45
B3: Cdc45-238 (EEY->AAA) (natural protein, S. cerevisiae, UniProt Q08032 1-650, looked up)
chain: B2 chain with A124D, A126H, E238A, E239A, Y240A
notes: as for B2

percent of wild-type Cdc45 association [1]: 27 % of wild-type Cdc45 association
stable CMG complexes, percent of wild-type Cdc45 [2]: 43 % of wild-type Cdc45
B4: Cdc45-485 (DDRK->AAAA) (natural protein, S. cerevisiae, UniProt Q08032 1-650, looked up)
chain: B2 chain with A124D, A126H, D485A, D486A, R487A, K488A
notes: as for B2
